In paper PMC11402128, “The stability of FKBP9 maintained by BiP is crucial for glioma progression” (Genes & Diseases, 2023):

Target: T1, human recombinant protein BiP (TP305859, Origene) (human, UniProt P11021 19-654)
T1 construct: also called purified BiP; source: bought: Origene (TP305859)
Experiment: SPR; BScreen LB 991 label-free microarray system; proteins printed on the chip and photo-cross-linked; analyte proteins at 200, 400, 800, 1600 and 3200 nM in 10 mM HEPES pH 7.0, 3 mM EDTA, 150 mM NaCl, 0.005% P20; 5 uL/min, 10 min association, 6 min dissociation; constants by slope fitting
Conditions: both partners purified

T1 sequence (P11021 19-654): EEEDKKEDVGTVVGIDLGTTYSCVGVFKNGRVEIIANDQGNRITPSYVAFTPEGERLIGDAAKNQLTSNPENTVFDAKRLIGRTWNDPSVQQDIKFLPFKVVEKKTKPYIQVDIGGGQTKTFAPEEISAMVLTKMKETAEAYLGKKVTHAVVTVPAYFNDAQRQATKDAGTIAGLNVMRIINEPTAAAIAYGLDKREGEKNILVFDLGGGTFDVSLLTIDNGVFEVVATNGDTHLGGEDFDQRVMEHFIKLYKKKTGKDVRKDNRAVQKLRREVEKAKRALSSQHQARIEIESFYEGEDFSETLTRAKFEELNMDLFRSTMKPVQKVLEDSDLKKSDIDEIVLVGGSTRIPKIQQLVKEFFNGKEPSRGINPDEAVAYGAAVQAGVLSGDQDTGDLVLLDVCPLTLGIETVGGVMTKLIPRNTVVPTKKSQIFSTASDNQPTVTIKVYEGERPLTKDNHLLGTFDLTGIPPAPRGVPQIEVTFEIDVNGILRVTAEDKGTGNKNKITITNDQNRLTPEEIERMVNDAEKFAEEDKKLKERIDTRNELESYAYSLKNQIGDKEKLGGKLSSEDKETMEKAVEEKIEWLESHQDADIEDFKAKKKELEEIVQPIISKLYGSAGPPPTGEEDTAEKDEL

B1: human recombinant protein FKBP9 (TP322307, Origene) (natural protein, UniProt O95302 25-570, looked up)
chain: APVAGLGSDAELQIERRFVPDECPRTVRSGDFVRYHYVGTFPDGQKFDSSYDRDSTFNVFVGKGQLITGMDQALVGMCVNERRFVKIPPKLAYGNEGVSGVIPPNSVLHFDVLLMDIWNSEDQVQIHTYFKPPSCPRTIQVSDFVRYHYNGTFLDGTLFDSSHNRMKTYDTYVGIGWLIPGMDKGLLGMCVGEKRIITIPPFLAYGEDGDGKDIPGQASLVFDVALLDLHNPKDSISIENKVVPENCERISQSGDFLRYHYNGTLLDGTLFDSSYSRNRTFDTYIGQGYVIPGMDEGLLGVCIGEKRRIVVPPHLGYGEEGRGNIPGSAVLVFDIHVIDFHNPSDSISITSHYKPPDCSVLSKKGDYLKYHYNASLLDGTLLDSTWNLGKTYNIVLGSGQVVLGMDMGLREMCVGEKRTVIIPPHLGYGEAGVDGEVPGSAVLVFDIELLELVAGLPEGYMFIWNGEVSPNLFEEIDKDGNGEVLLEEFSEYIHAQVASGKGKLAPGFDAELIVKNMFTNQDRNGDGKVTAEEFKLKDQEAKHDEL
notes: also called purified FKBP9; source: bought: Origene (TP322307)
Question: B1 was tested. Which Kd did it give?
Answer: Its Kd is 271 nM.
